± gives the standard error. For some assays here: Fewer inactive variants are shown than the library holds.
B1: glmS ribozyme (parent)
chain: AUAAAAGCGCCAGAACUACAGAAAUGUAGUUGACGAGGAGGAGGUUUAUCGAAUUUUCGGCGGAUGCCUCCAAA

Columns and labels:
Settings in all cases: with glucosamine-6-phosphate
[1] = variants of: B1; assay: kcat; higher = faster cleavage; RNA array
Method in brief: (§1)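 Glucosamine-6-phosphate in HEPES/KCl/Mg(OAc)2 buffer, at 40 μM to 10 mM, was flowed over barcoded ribozyme variants transcribed in situ by E. coli RNA polymerase on sequenced MiSeq chips. Tracking was through a hybridised Cy3 probe at 37 °C. kobs, kcat and KM came from exponential decay fits and weighted Michaelis–Menten fits of normalised per-tile medians.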

[2] = variants of: B1; assay: KM; higher = weaker cofactor use; RNA array
Method in brief: as §1

[3] = variants of: B1; assay: self-cleavage kobs at 40 uM GlcN6P; higher = faster cleavage; RNA array
Method in brief: as §1

[4] = variants of: B1; assay: self-cleavage kobs at 160 uM GlcN6P; higher = faster cleavage; RNA array
Method in brief: as §1

[5] = variants of: B1; assay: self-cleavage kobs at 640 uM GlcN6P; higher = faster cleavage; RNA array
Method in brief: as §1

[6] = variants of: B1; assay: self-cleavage kobs at 10000 uM GlcN6P; higher = faster cleavage; RNA array
Method in brief: as §1

[7] = variants of: B1; assay: self-cleavage kobs at 2500 uM GlcN6P; higher = faster cleavage; RNA array
Method in brief: as §1

| Variant | kcat [1] | KM [2] | self-cleavage kobs at 40 uM GlcN6P [3] | self-cleavage kobs at 160 uM GlcN6P [4] | self-cleavage kobs at 640 uM GlcN6P [5] | self-cleavage kobs at 10000 uM GlcN6P [6] | self-cleavage kobs at 2500 uM GlcN6P [7] |
| --- | --- | --- | --- | --- | --- | --- | --- |
| U45A A53G | 0.0342 ± 0.011 s⁻¹ | 692 ± 270 µM | 0.002 ± 0.00022 s⁻¹ | 0.00536 ± 0.0026 s⁻¹ | 0.0131 ± 0.0026 s⁻¹ | 0.0473 ± 0.012 s⁻¹ | – |
| C11A C68G | < 1e-05 s⁻¹ | – | – | – | – | – | – |
| A12U G41C | 0.000373 ± 8.7e-05 s⁻¹ | 1830 ± 770 µM | – | 2.68e-05 ± 1.1e-05 s⁻¹ | 0.000108 ± 1.2e-05 s⁻¹ | 0.000373 ± 5e-05 s⁻¹ | 0.000168 ± 2.7e-05 s⁻¹ |
| C67G C70A | < 1e-05 s⁻¹ | – | < 1e-05 s⁻¹ | – | < 1e-05 s⁻¹ | < 1e-05 s⁻¹ | – |
| C11U A42G | 0.00345 ± 0.0015 s⁻¹ | – | 9.14e-05 ± 3.5e-05 s⁻¹ | 0.000114 ± 3e-05 s⁻¹ | 0.000561 ± 0.00013 s⁻¹ | 0.0022 ± 0.00065 s⁻¹ | 0.00178 ± 0.0004 s⁻¹ |
| C10G A12U | 8.15e-05 ± 3.2e-05 s⁻¹ | – | – | – | – | – | – |
| C70G C71U | 0.000112 ± 1.4e-05 s⁻¹ | 401 ± 170 µM | – | 5.07e-05 ± 7.8e-06 s⁻¹ | 6.12e-05 ± 4.8e-06 s⁻¹ | 0.00011 ± 8.6e-06 s⁻¹ | 0.000102 ± 8.1e-06 s⁻¹ |
| U31G U65G | 0.00259 ± 0.00018 s⁻¹ | 4140 ± 440 µM | – | 9.35e-05 ± 1.7e-05 s⁻¹ | 0.000375 ± 5.5e-05 s⁻¹ | 0.00184 ± 0.00019 s⁻¹ | 0.000924 ± 0.00017 s⁻¹ |
| U31C C71G | 0.000382 ± 8.8e-05 s⁻¹ | 1970 ± 890 µM | – | – | 9.1e-05 ± 1.5e-05 s⁻¹ | 0.000321 ± 4.9e-05 s⁻¹ | 0.000213 ± 3.5e-05 s⁻¹ |
| A6G C50G C68U | 0.000115 ± 2.9e-05 s⁻¹ | – | 5.04e-05 ± 2.1e-05 s⁻¹ | 9.16e-05 ± 2.3e-05 s⁻¹ | 0.000189 ± 4.8e-05 s⁻¹ | 7.92e-05 ± 2.5e-05 s⁻¹ | 0.000173 ± 4.6e-05 s⁻¹ |
| C16A G32A | 0.0012 ± 0.00043 s⁻¹ | – | – | – | 0.000229 ± 0.00011 s⁻¹ | 0.000787 ± 0.00012 s⁻¹ | – |
| G44A C67G | 0.000462 ± 7e-05 s⁻¹ | 1700 ± 580 µM | – | 2.41e-05 ± 1e-05 s⁻¹ | 0.000128 ± 1.5e-05 s⁻¹ | 0.000371 ± 3e-05 s⁻¹ | 0.000355 ± 3.8e-05 s⁻¹ |
| A53U G59A | 4.83e-05 ± 6.3e-06 s⁻¹ | – | < 1e-05 s⁻¹ | – | – | 4.2e-05 ± 8.2e-06 s⁻¹ | 3.5e-05 ± 1.2e-05 s⁻¹ |
| A64C C68A | < 1e-05 s⁻¹ | – | < 1e-05 s⁻¹ | – | – | < 1e-05 s⁻¹ | – |
| G29A U46G | 0.00124 ± 0.00055 s⁻¹ | – | – | 5.62e-05 ± 1.3e-05 s⁻¹ | 0.000243 ± 4.1e-05 s⁻¹ | 0.00128 ± 0.00027 s⁻¹ | 0.000425 ± 7.7e-05 s⁻¹ |
| A12C U55A | 0.0159 ± 0.0051 s⁻¹ | 888 ± 360 µM | 0.000742 ± 8.1e-05 s⁻¹ | 0.00192 ± 0.00036 s⁻¹ | 0.00819 ± 0.0014 s⁻¹ | – | 0.0112 ± 0.0021 s⁻¹ |
